Source: the nanobody polyreactivity screen of Harvey et al. (2022)

Assay: yeast display, Sf9 membrane polyspecificity reagent, FACS + sequencing; frameworks hold sequencing errors
How it was run: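 Nanobodies from a synthetic yeast display library (Saccharomyces cerevisiae BJ5465), induced 36–48 hours with galactose, were stained 1 hour at 4 °C with 10% biotinylated, detergent-solubilized Sf9 membrane reagent, enriched on streptavidin microbeads, then FACS-sorted. Anti-HA (expression) and streptavidin (reagent binding) fluorescence set low and high (top ~1%) gates. Polyreactivity labels come from the gate of origin. Genes were colony-PCR amplified, MiSeq 2 × 250 sequenced and filtered by CDR length.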

| Sequence | polyreactivity (PSR sort gate) |
| --- | --- |
| QVQLVESGGGLVQAGGSLRLSCSASGYTFYLYTMGWYRQAPGTERELVAAISGSGTSTYYADSVKGRFTISRDNAKNTVYLQMNSLKPEDTAVYYCAAEDYSRDVYSYYYWGQGTQVTVSS | low polyreactivity |
| QVQLVESGGGLVQAGGSLRLSCSASVRTFYRNSMGWYRQAPGKEREFVAVISVSGGSTYYADSVKGRFTISRDNAKNTVYLQMNSLKPEDTAVYYCAADEYYTFSSFELRRMDYWGQGTQVTVSS | low polyreactivity |
| QVQLVESGGGLVQAGGSLRLSCSATGLTFRPYAMGWYRQAPGTERELVAGITRGGSTKYADSVKGRFTISRDNAKNTVYLLMISLKPEDTAVYYCAVERGSYSYDRPFYYWGQGTQVTVSS | high polyreactivity |
| QVQLVESGGGLVQAGGSLRLSCSATGSTFTINSMGWYRQAPGKERELVAATSKRGTNTYYADSVKGRFTISRDNAKNTVYLQMNSMKTEDSAVYYCKAPGHRQNGLGDYWGQGTQVTVSS | high polyreactivity |
| QVQLVESGGGLVQAGGSLRLSCSAYGSILWYNAMGWYRQAPGKERELVAAINRGGSTNYADSVKGRFTISRDNAKNTVYLQMNSLKPEDTAVYYCAADRLLVSAGGVQFDYWGQGTQVTVSS | low polyreactivity |
| QVQLVESGGGLVQAGGSLRLSCSDSGFTFARYTMGWYRQPPGKESELVAGISRSTGRTYYADSVKGLFTISRDNAKNTVYLQMNSLKPEDTAVYYCAARATRSLSRSMDYWGQGTQVTVSS | high polyreactivity |
| QVQLVESGGGLVQAGGSLRLSCSSSGLTLYRYAMGWYRQAPGKERELVAGISWGGGSTYYADSVKGRFTISRDNAKNTVFLQMNSLKPEGNAVYYCAAGRLLYIPRYYYWGQGTQVTVSS | high polyreactivity |
| QVQLVESGGGLVQAGGSLRLSCTASGSTYVAYAMGLYRQAPGKERELVAAITSSGGRTYYADSVKGRFTISRDNAKNTVYLQMNSLKPEDTAVYYCDAVTHGRYDWGQGTQVTVSS | high polyreactivity |
| QVQLVESGGGLVQAGGSLRLSCVASGRIFARNAMGWYRQAPGKERELVAAISGSGVRTYYADSVKGRFTISRDNAKNTVYLQMNSLKPEDTAVYYCNAVSGGHRSRYGYWGQGTQVTVSS | high polyreactivity |
| QVQLVESGGGLVQAGGSLRLSCVASGRIFLTYAMGWYRQAPGKERELVAAISYSGASTYYADSVKGRFTISRDNAKNTVYLQMNSLKPEDTSVYYCATERVGTPRMNYWGQGTQVTVSS | high polyreactivity |
| QVQLVESGGGLVQAGGSLRLSCVASGRIFYNYAMGWYRQAPGNERELVAAISSSGGRTYYADSVKGRFTISRDNAKNTVYLQMNSLKPEDTAVYYCAADFHDASRPYGSWGQGTQVTVSS | low polyreactivity |
| QVQLVESGGGLVQAGGSLRLSCVASGSILAYYAMGWYRQAPGKERELVAAISRSGGSTYYADSVKRRFTISRDNAKNTVNLQMNSLKPEDTAVYYCAADFRRWQYNTVNEFGYWGQGTQVTVSS | high polyreactivity |
| QVQLVESGGGLVQAGGSLRLSFAASGFIFDKYAMGWYRQAPGKERELVATITSGGSTYYADSVKGRFTISRDNAKNYVYLQMYSLKREDTADYYCAALDYGYRWYRYYYWGQGSQVTVSS | high polyreactivity |
| QVQLVESGGGLVQAGGSLRLSFAASGFIFDYYAMGGYRQEPGKDRELVAAISSSGRTSYADSVKGRFTISRDNAKNTVYLQMNSLKPEDTAVYYCNATWRWTRRGYDYWGQGTQVTVSS | low polyreactivity |
| QVQLVESGGGLVQAGGSLRLSFAASGFIFYRNTMGWYRQAPGKERELVAGITSGGRTNYADSVKGRFTISRDNAKNTVYLQMNSLKPEYTAVYYCNRVVYTYISTGSRHGRYNYWGQGTQVTVSS | high polyreactivity |
| QVQLVESGGGLVQAGGSLRLSFAASGFIIGRNAMGWYRQAPGKEREMVAAITSGGNTYYADSVKGRFTISRDNAKNTVYLQMNSLKPEDTAVYYCAARRRYPLVDAGYYWGQGTQVTVSS | high polyreactivity |
| QVQLVESGGGLVQAGGSLRLSFAASGFTFGWYAMGWYRQAPGKGRELVAAISGGDSRTYADSVKGRFTISRDNAKNTVYLQMNSLKPADTAVYYCNAENRQLYWWTVARSHYGYWGQGTQVTVSS | low polyreactivity |
| QVQLVESGGGLVQAGGSLRLSFAASGFTFKYYAMGWYRPAPGKERELVAAIRSGGSTYYADSVKGRFTISRDNAKNTVYLQMNSLKPEDTAVYYCNAPAFYRYGLNYWGQGTQVTVSS | high polyreactivity |
| QVQLVESGGGLVQAGGSLRLSFAASGFTFVNYAMGWYRQAPGKDRELVAAIRRSGSRTYYADSVKGRFTISRDKAKNTVYLQKNSLKPEDTAVYYCAAVWYSLYGNWGQGNQVTVSS | low polyreactivity |
| QVQLVESGGGLVQAGGSLRLSFAASGIIFVGYAMGWYRQAPGKEMELVAAISTSSRTYYADSVKGRFTISRDNAKNTVYLQMNIQKPEDTAVYYCNARGTRWYYRHEYWGQGTQVTVSS | high polyreactivity |
| QVQLVESGGGLVQAGGSLRLSFAASGIILGSYAMGWYRQAPGKERELVAGITSGGGTYYADSVKGRFTISRDNAKNTVYLQMNSLKPEDTAVYYCAKLYLHYYRYGYWGQGTQVTVSS | low polyreactivity |
| QVQLVESGGGLVQAGGSLRLSFAASGINFEHNSMGWYRQAPGKERELVAVISKYGGRTYYADSVKGRFTISRDNAKNTVYLQMNSLKPEDTAVYYCAKRSPFITWNGISYEEYDYWGQGTQVTVSS | low polyreactivity |

| Sequence | polyreactivity (PSR sort gate) |
| --- | --- |
| QVQLVESGGGLVQAGGSLRLSFAASGITFSLYVMGWYRQAPGKERELVAAISYRGGTTYYADSVKGRFTISRDNAKNTVYLQMNSLKPEDTAVYYCAARGSRDRQEAEYGYWGQGTQVTVSS | high polyreactivity |
| QVQLVESGGGLVQAGGSLRLSFAASGRIFAYYAMGCYRQAPGKERELVASISRSGGRTYYADSVKGRFTISRDNAKNTVYLQMNSLKPEDTAVYYFNRAVWFKSTVDYWGQGTQVTVSS | high polyreactivity |
| QVQLVESGGGLVQAGGSLRLSFAASGRIFGYYAMGWYRQAPGKERELVAAITTSDGSTYYADSVKGRFTISRDNAKNTVYLQMNSLKPEDTAVYYCNARRWGYQWRGDYWGQGTQVTVSS | high polyreactivity |
| QVQLVESGGGLVQAGGSLRLSFAASGRIFRSYAMGWYRQAPGKERELVAAITSGGSTYYADSVKGRFTISRDNAKNTVYLQLNSLKPEDTAVYYCNADYDVSSPRPAFDYWGQGTQVTVSS | low polyreactivity |
| QVQLVESGGGLVQAGGSLRLSFAASGRIFYSNARGWYRQAPGKERELVATITRSSGITYYADSVKGRFTISRDNAKNTVYLQMNSLKTEDTAVYYWADRYSNRWARVSGYDYWGQGTQVTVSS | high polyreactivity |
| QVQLVESGGGLVQAGGSLRLSFAASGRTFGYYAMGWYRHAPGKERELVAAITRNGGRTYYADSVKGRFTISSDNAKNTFYLQMNSLKPEDTAVYYCAKDQYKPEAFYYWGQGTQVTVSS | high polyreactivity |
| QVQLVESGGGLVQAGGSLRLSFAASGRTFSRYAMVWYRQAPGKERELVATISFGGSTYYADSVKGRFTISRDNAKNTVYLQMNSLKPEDTALYYCTARYYLNYRGRKYESWGQGTQVTVSS | high polyreactivity |
| QVQLVESGGGLVQAGGSLRLSFAASGSIFKGYTMGWYIQAPGKEREFVASISRRGGSTYYADSVKGRFTISRDNAKNTVYLQMNSLKPEYTAVYYCAKDYGKAYDYWGQGTQVTVSS | high polyreactivity |
| QVQLVESGGGLVQAGGSLRLSFAASGSIFPSYAMVWYRQAPGKERELVARISSGDDSTYYADSVKGRFTISRDNAKNTVYLQMNSLKPEDNAVYYCAADYPDVVYLEYDYWGQGTQVTVSS | low polyreactivity |
| QVQLVESGGGLVQAGGSLRLSFAASGSIFTPNVMGWYRPAPGKERELVAAISQSGGSTFYADSVKGRFTISRDNAKNTVYLQMNSLKPEDTAVYFCATEYYGPVYDLDYDYWGQGTQVTVSS | low polyreactivity |
| QVQLVESGGGLVQAGGSLRLSFAASGSIFYAYAMGWYRQAPGKERELVAGISGGGSTNYADSVKGRFTISRDNAKNTVYLQMNSLKPEDTAVYYCAADGWLSATYDGLPDSDSWGQGTQVTVSS | high polyreactivity |
| QVQLVESGGGLVQAGGSLRLSFAASGSTFGLNAMGWYRQAPGKERELVAAITRSDITNYADSVKGRFTISRDNAKNTVYLQMNSLKPEDTAVYYCNKTPDRHRRYFGYGYWGQGTQVTVSS | low polyreactivity |
| QVQLVESGGGLVQAGGSLRLSFAASGSTFPVYTMGWYRQAPGKERELVAAITGSGGRTYYADSVKGRFTISRDNAKNTVYLQMNSLKPEDTAVYYCNAYPKGRYAAAFPGMDYWGQGTQVTVSS | high polyreactivity |
| QVQLVESGGGLVQAGGSLRLSFAASGYIFYPNVMGWYRQAPGKERELVADISSGGSTNYADSVKGRFTISRDNAKNTVYLQINSLKPEDTAVYYCAKGPRLYFTRDKAHWKYDYWGQGTQVTVSS | low polyreactivity |
| QVQLVESGGGLVQAGGSLRLSFAATGRICSPYAMGWYRQAPGKERELVAAISYDDGITYYADSVKGRFTISRDNATNTVYLQMNSLTPEDTAVYYCAADSVTRPAGDYWGQGTQVTVSS | low polyreactivity |
| QVQLVESGGGLVQAGGSLRLSFAGSGYIFTSYAMRWYRQAPGKERQLVARINYSGGGTSYADSVKGRFTISRDNAKHTVYLQMNSLKQEDTAVYYCAARSYWFRPTKYNYWGQGTQVTVSS | high polyreactivity |
| QVQLVESGGGLVQAGGSLRLSFAPSGNSFGRYAMGWYRQAPGKERELVAAITRSGGTTYYADSVKGRFTLSRDNAKNTGYLQMNSLKPEDTAVYYCATDGDSTKLDYWGQGTQVTVSS | low polyreactivity |
| QVQLVESGGGLVQAGGSLRLSFDASGLIFYYYTMGWYRPAPGKERELVAAITWTDVDTYYADSVKGRFTISRDNAKNTVYLQMNSLKPEDTAVYYCAAEGGRTSYGGSGELDYWGQGTQVTVSS | high polyreactivity |
| QVQLVESGGGLVQAGGSLRLSGAASGFIFIGYTMGWYRQAPGKAWELVATISLGDDSTYYADSVKGRFTISRDNAKNTVYLQMNSLKPEDTAVYYCAGDQKDGTTSAYDYCGQGTQVTVSS | low polyreactivity |
| QVQLVESGGGLVQAGGSLRLSGAASGFTFDNNAMGWYRQAPGKEREMVAAITGRGSRTNYADSVKGRFTISRDNAKNTVYLQMNSLKPEDTAVYYCATRLWVYGEGSFDDWGQGTQVTVSS | high polyreactivity |
| QVQLVESGGGLVQAGGSLRLSGAASGRIFDIYAMGWYRQAPGKERELVAGITSVGSTNYADSVKGRFTISRDYAKNTVYLQMNSLKPEDTAVYYCAADTSVHSEVDYGGQGTQVTVSS | low polyreactivity |
